Residue numbers refer to the chain shown, from its start.
B1: humanized Y1238 hz25 (hz-HC5 / hz-LC5), IgG1.3f (antibody, V domains shown)
VH: QVQLVQSGAEVKKPGASVKVSCKASGYAFTNYLIEWVRQRPGQGLEWMGVINPGSGGTNYNEKFKGRVTMTADKSISTAYMELSRLRSDDTAVYYCARSQLGRRFDYWGQGTLVTVSS
VL: DIQMTQSPSSLSASVGDRVTITCKASQDVRTGVAWYQQKPGQAPKLLIYSASYRNTGVPSRFSGSRSGTDFTFTISSLQPEDIAVYYCQQHYSPPYTFGGGTKVEIK
notes: IgG1.3f heavy constant, common CL; expression supernatant; also called Sup 25
B2: humanized Y1238 hz7 (hz-HC2 / hz-LC2), IgG1.3f (antibody, V domains shown)
VH: B1 VH with R40A, K74T
VL: B1 VL with Q42K, V85T
notes: IgG1.3f heavy constant, common CL; expression supernatant; also called Sup 7
B3: humanized Y1238 hz19 (hz-HC4 / hz-LC4), IgG1.3f (antibody, V domains shown)
VH: B1 VH with R40A
VL: B1 VL with A43S, P80A
notes: IgG1.3f heavy constant, common CL; expression supernatant; also called Sup 19
B4: humanized Y1238 hz8 (hz-HC2 / hz-LC3), IgG1.3f (antibody, V domains shown)
VH: B1 VH with R40A, K74T
VL: B1 VL with A43S
notes: IgG1.3f heavy constant, common CL; expression supernatant; also called Sup 8
B5: humanized Y1238 hz26 (hz-HC6 / hz-LC1), IgG1.3f (antibody, V domains shown)
VH: B1 VH with M70L
VL: B1 VL with Q42K, R66G, V85T
notes: IgG1.3f heavy constant, common CL; expression supernatant; also called Sup 26
B6: humanized Y1238 hz27 (hz-HC6 / hz-LC2), IgG1.3f (antibody, V domains shown)
VH: B1 VH with M70L
VL: B1 VL with Q42K, V85T
notes: IgG1.3f heavy constant, common CL; expression supernatant; also called Sup 27
B7: humanized Y1238 hz9 (hz-HC2 / hz-LC4), IgG1.3f (antibody, V domains shown)
VH: B1 VH with R40A, K74T
VL: B1 VL with A43S, P80A
notes: IgG1.3f heavy constant, common CL; expression supernatant; also called Sup 9
B8: humanized Y1238 hz38 (hz-HC8 / hz-LC3), IgG1.3f (antibody, V domains shown)
VH: B1 VH with K12V, M70L, I76S, E82Q, Y95F
VL: B1 VL with A43S
notes: IgG1.3f heavy constant, common CL; expression supernatant; also called Sup 38
B9: humanized Y1238 hz41 (hz-HC9 / hz-LC1), IgG1.3f (antibody, V domains shown)
VH: B1 VH with K12V, M70L, I76S, E82Q, Y95F, L113T
VL: B1 VL with Q42K, R66G, V85T
notes: IgG1.3f heavy constant, common CL; expression supernatant; also called Sup 41
B10: humanized Y1238 hz6 (hz-HC2 / hz-LC1), IgG1.3f (antibody, V domains shown)
VH: B1 VH with R40A, K74T
VL: B1 VL with Q42K, R66G, V85T
notes: IgG1.3f heavy constant, common CL; expression supernatant; also called Sup 6
B11: humanized Y1238 hz17 (hz-HC4 / hz-LC2), IgG1.3f (antibody, V domains shown)
VH: B1 VH with R40A
VL: B1 VL with Q42K, V85T
notes: IgG1.3f heavy constant, common CL; expression supernatant; also called Sup 17
B12: humanized Y1238 hz21 (hz-HC5 / hz-LC1), IgG1.3f (antibody, V domains shown)
VH: B1 VH
VL: B1 VL with Q42K, R66G, V85T
notes: IgG1.3f heavy constant, common CL; expression supernatant; also called Sup 21
B13: humanized Y1238 hz36 (hz-HC8 / hz-LC1), IgG1.3f (antibody, V domains shown)
VH: B1 VH with K12V, M70L, I76S, E82Q, Y95F
VL: B1 VL with Q42K, R66G, V85T
notes: IgG1.3f heavy constant, common CL; expression supernatant; also called Sup 36
B14: humanized Y1238 hz5 (hz-HC1 / hz-LC5), IgG1.3f (antibody, V domains shown)
VH: B1 VH with R40A, A72R, K74T
VL: B1 VL
notes: IgG1.3f heavy constant, common CL; expression supernatant; also called Sup 5
B15: humanized Y1238 hz33 (hz-HC7 / hz-LC3), IgG1.3f (antibody, V domains shown)
VH: B1 VH with K12V, I76S, E82Q, Y95F
VL: B1 VL with A43S
notes: IgG1.3f heavy constant, common CL; expression supernatant; also called Sup 33
B16: humanized Y1238 hz22 (hz-HC5 / hz-LC2), IgG1.3f (antibody, V domains shown)
VH: B1 VH
VL: B1 VL with Q42K, V85T
notes: IgG1.3f heavy constant, common CL; expression supernatant; also called Sup 22
B17: humanized Y1238 hz30 (hz-HC6 / hz-LC5), IgG1.3f (antibody, V domains shown)
VH: B1 VH with M70L
VL: B1 VL
notes: IgG1.3f heavy constant, common CL; expression supernatant; also called Sup 30
B18: humanized Y1238 hz35 (hz-HC7 / hz-LC5), IgG1.3f (antibody, V domains shown)
VH: B1 VH with K12V, I76S, E82Q, Y95F
VL: B1 VL
notes: IgG1.3f heavy constant, common CL; expression supernatant; also called Sup 35

Target: T1, human-CD40 monomer (human, UniProt P25942 21-193, limits assumed)
T1 construct: also called hCD40-monomer; human-CD40-monomer protein
T1 sequence (P25942 21-193 limits assumed): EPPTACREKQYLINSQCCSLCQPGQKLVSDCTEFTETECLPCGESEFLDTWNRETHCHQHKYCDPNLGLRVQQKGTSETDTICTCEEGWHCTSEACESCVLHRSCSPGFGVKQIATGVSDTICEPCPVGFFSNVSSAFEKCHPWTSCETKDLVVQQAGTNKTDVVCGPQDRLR
Assay: SPR 2 pt screen, Ab on protein A
Description: The VH sequences were formatted in the context of an IgG1.3f isotype. The Vκ sequences were formatted as a full light chain with a common CL sequence. All 55 combinations of these humanized HC and LC constructs, as well as the chimeric Y1238 molecule were expressed as 3 ml supernatants for binding analysis by SPR. Each of the 56 supernatants, as well as a purified Y1238-chimeric IgG1 antibody, was captured on a protein A sensor chip and tested for binding to two concentrations (i.e., 200 nM and 1000 nM) of hCD40-monomer using BIAcore™ SPR in a screening assay. All antibodies, except for those containing hz-HC3, captured at high levels (>300 RU) using a 100-fold dilution of the expression supernatant, indicating a high antibody titer in the supernatant except for the hz-HC3 samples. The kinetic data for the two concentrations of hCD40-monomer were fit to a 1:1 Langmuir model, to yield estimates of the kinetic and affinity values for these interactions, and for comparison of the different molecules. […] Also, for a given heavy chain, the antibodies with light chains hz-LC1 or hz-LC2 had higher CD40 affinity than those with hz-LC3, hz-LC4 or hz-LC5.

Binder | Kd [nM] | koff [s⁻¹] | kon [M⁻¹ s⁻¹]
B1 | 6.6 | 0.00028 | 43000
B2 | 2.7 | 0.00011 | 43000
B3 | 6.3 | 0.00028 | 45000
B4 | 6.2 | 0.00029 | 46000
B5 | 2.9 | 0.00012 | 41000
B6 | 3.3 | 0.00013 | 40000
B7 | 6.6 | 0.00031 | 47000
B8 | 8.2 | 0.00032 | 39000
B9 | 4.4 | 0.00017 | 38000
B10 | 2.7 | 0.00012 | 45000
B11 | 4.4 | 0.00018 | 42000
B12 | 3.5 | 0.00015 | 42000
B13 | 3.7 | 0.00014 | 39000
B14 | 11 | 0.0005 | 47000
B15 | 8.7 | 0.00035 | 40000
B16 | 2.9 | 0.00012 | 40000
B17 | 7.7 | 0.00033 | 42000
B18 | 9.2 | 0.00037 | 40000

Source: patent US20220177596A1 (Bristol-Myers Squibb, published 2022)
